Measured values as given in paper PMC2989882.
Read-outs that look alike come from different tables or passages of the source.

B1: sym/sub RNA (dsRNA)
RNA 1: GCAUGGGCCC
RNA 2: GCAUGGGCCC
B2: 3'-blocked sym/sub RNA (after 3'-dAMP incorporation) (dsRNA)
RNA 1: GCAUGGGCCCA
RNA 2: GCAUGGGCCCA
modifications: 3'-terminal 3'-deoxyadenosine (A11)

How the values were obtained:
[1] = molecular target: T1, 3Dpol WT (RNA-dependent RNA polymerase) (poliovirus, UniProt P03300 1749-2209); assay: NMR
[2] = molecular target: T1, 3Dpol WT (RNA-dependent RNA polymerase); assay: NMR; remark: listed apart in the source

T1 sequence (P03300 1749-2209): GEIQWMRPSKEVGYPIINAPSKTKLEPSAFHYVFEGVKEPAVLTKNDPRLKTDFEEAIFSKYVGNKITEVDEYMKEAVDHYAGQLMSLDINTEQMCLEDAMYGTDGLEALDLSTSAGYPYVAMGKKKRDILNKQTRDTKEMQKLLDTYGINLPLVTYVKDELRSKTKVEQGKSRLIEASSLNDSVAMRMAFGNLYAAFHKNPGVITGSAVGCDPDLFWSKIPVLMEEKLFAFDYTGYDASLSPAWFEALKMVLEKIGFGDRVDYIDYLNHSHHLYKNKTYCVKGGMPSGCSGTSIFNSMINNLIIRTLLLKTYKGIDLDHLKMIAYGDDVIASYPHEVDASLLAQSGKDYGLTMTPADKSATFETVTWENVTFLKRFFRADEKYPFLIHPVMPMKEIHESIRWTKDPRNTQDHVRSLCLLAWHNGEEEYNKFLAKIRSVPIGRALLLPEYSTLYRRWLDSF

| Binder | binding result [1] | binding result [2] |
| --- | --- | --- |
| B1 | binds | – |
| B2 | – | binds |
